Experimental data reported in patent publication EP1577321A1.

Target: patched (on patched-transfected EBNA-293 cells)
Assay: FACS competition with Shh-Ig on patched-transfected EBNA-293 cells

IC50 | Substance
0.15 µg/mL | soluble human Sonic hedgehog N-terminal fragment (unmodified, produced in E. coli) (from UniProt Q14623 28-201) (ligand)
0.4 µg/mL | tethered human Sonic hedgehog (N-terminal palmitoyl, C-terminal cholesterol) purified from High Five insect cells (from UniProt Q14623 28-201) (ligand)
